# Experiment: soluble on expression in E. coli; label from the status in PepcDB or PDB records
row,Sequence,soluble on expression in E. coli
1,GSHMSQLYASLFYQRDVTEIFSDRALVSYMVEAEVALAQAQAQVGVIPQSAATVIQRAAKTAIDKIDFDALATATGLAGNIAIPFVKQLTAIVKDADEDAARYVHWGATSQDILDTACILQCRDALAIVQNQVQQCYETALSQAQTYRHQVMMGRTWLQQALPITLGHKLARWASAFKRDLDRINAIKARVLVAQLGGAVGSLASLQDQGSIVVEAYAKQLKLGQTACTWHGERDRIVEIASVLGIITGNVGKMARDWSLMMQTEIAEVFEPTAKGRGGSSTMPHKRNPVAAASVLAAANRVPALMSSIYQSMVQEHERSLGAWHAEWLSLPEIFQLTAGALERTLDVLKGMEVNAENMHQNIECTHGLIMAEAVMMALAPHMGRLNAHHVVEAACKTAVAEQKHLKDIISQVDEVKQYFNPSQLDEIFKPESYLGNIQDQIDAVLQEAKGEAK,soluble
2,MNRYITRGIANNLPNILQHQLWQLVSEREQEQTKDNTLVDYFHIFQFNTHRNQLYIKHKQERPAYVKTQKANINQPININKVYIIREDDVDLSYYIMLLPNEYLEHHHHHH,soluble
3,SNAMNASAVETIYESTEDKAALTSVVDLVKLSDQYRQSAILHYAVADKLFDLTQTGRTPAEVAASFGMVEGKAAILLHALAALGLLTKEGDAFRNTALTERYLTTTSADYIGPIVEHQYLQWDNWPRLGEILRSEKPLAFQQESRFAHDTRARDAFNDAMVRLSQPMVDVVSELGVFARARTVIDLAGGHGTYLAQVLRRHPQLTGQIWDLPTTRDAARKTIHAHDLGGRVEFFEKNLLDARNFEGGAADVVMLNDCLHYFDAREAREVIGHAAGLVKPGGALLILTMTMNDDRVTPALSADFSLHMMVNTNHGELHPTPWIAGVVRDAGLAVGERSIGRYTLLIGQRSSGE,soluble
4,MNFSIRVILLLTGFVSLAFSAPKFLTISDIHYGAENIAKDGQDTGKEFLDVTFKRFEELSQNVDFILHLGDLPTHSLFSIPKKEEYEQVVFHGLHEANPGQKPMFYITGNNDSLLGNYQPFSSDNKSPLNLALDWDGACAYCDGLIIDDTHMRKDGYYSSYVIPNNKEIILIALNSVQWTKTPVFLPKYPNQQRDAFVQLFWLEQQLKNHRAKQLLLAMHVPPGTAYNGNRFWHDIYLDRFLTLLDKYHQSYDQITILFSHSHMEEFRKIRLSDGSTIYAFSTPGISRAHHNNPGMKIFDLDKQMRVRNSTTYYTSDLYEWGNEYYQAMNTPDAIFPNCQNKTIPQCLDTLSPEQVCNNLEVGLFYGVKSTRVPYQGCIKTYQINLEHHHHHH,not soluble
5,MGSDKIHHHHHHMNWKVTIKNTIEELAKLKKDVKIENEGDPEHELSDAEDKVMKIELEEEFKPTMYSLYEFKSLNDKRIASIDSSSRYLRDFSVNTCLIGLSVYSNREGFIDGPFTVDIPYIGISSYREILESLKIDDINVRYKNVVNYYYVNEPNNEYKIDDIADELRLEAENVGLKRVIQNHDIVIIDGPIYPTPLELTEEINLETEARRKHRLAYAKLVNERIELLNNNVIGVVKRLENSKKLWRVKEINETIGNVKRMKDVTIIELIDERLCRKNYEYVCTIGPFKIEYALEVKDEDGRNVIEKVPTKYAYYVIIRKKYFPPTFLRIESTNKNLDISPVLSRLTERLMPTYIEIVDRRSKRISASLFLYAYEIASNYLNIIHDDKMGYLSVISQFTSE,not soluble
6,MAHHHHHHMPVPVLLDNYAYFILSCKTKRCAVVDPADPTLVLNMLEVVRNLTQIDFMITDILTTHKHWDHAGGNMEMRALSQCSSERCRALLSPELNIYGSEVDRPHACNKLIKGSDELVVAGGGAKVVVLSTPGHTGGSVMFLVGDALPKEGEPQRLALFTGDCVFCGGCGALFEATSVDETLETVDIFNNNRTWVHPATGDIIHTDDVLIYVGHEYTERSLDMILSVQRTANQTGEQSAIATSNYCDTVAQARNGARRLRSCVVADDVYMKVTSMETKAPLHLRACTVPSTVTIEKKVNALLSLKRCVLEEFQGKPYASMAVQRAIYTSTKRNDTG,not soluble
7,MSIDMHCHLDLYPRPDLVAEESKRRGTYILSVTTTPKAWHGTSLLAKESQRIRTALGLHPQIAHQRSHELDLFDSLLSETKYVGEIGLDGGQGFKEHWDIQLKVFRHILNSVNRAGGKIMTIHSRGSASAVLDEIENIDGVAILHWFTGTPKQLERAIDLGCWFSVGPAMLDTIKGKALVLKIPKSRILTETDGPFAKFRNDPLMPWDSGIAEKQLAALWGISQMEVNAQLVDNFKVLCTS,soluble
8,MVAASEGNVVIEVDMANGWRGNASGSTSHSGITYSADGVTFAALGDGVGAVFDIARPTTLEDAVIAMVVNVSAEFKASEANLQIFAQLKEDWSKGEWDCLAASSELTADTDLTLTCTIDEDDDKFNQTARDVQVGIQAKGTPAGTITIKSVTITLAQEAYSANVDHLRDLAPSDFPIGVAVSNTDSATYNLLTNSREQAVVKKHFNHLTAGNIMKMSYMQPTEGNFNFTNADAFVDWATENNMTVHGHALVWHSDYQVPNFMKNWAGSAEDFLAALDTHITTIVDHYEAKGNLVSWDVVNAAIDDNSPANFRTTDSAFYVKSGNSSVYIERAFQTARAADPAVILYYNDYNIEQNNAKTTKMVDMVKDFQARSIPIDGVGFQMHVCMNYPSIANISAAMKKVVDLGLLVKITELDVAVNQPHCDAYPANKINPLTEAAQLAQKKRYCDVVKAYLDTVPVNQRGGISVWGTTDANTWLDGLYREQFEDEKISWPLLFDNNYNDKPALRGFADALIGTQCTNTHELHHHHHH,soluble
9,MSLTTFATEWEKQLELYPEEYRKAYRRVKRASEILLREPEPQVGLTPKEVIWTKNKTKLYRYIPKQEKTQRVPILLIYALINKPYIMDLTPGNSLVEYLVDRGFDVYMLDWGTFGLEDSHLKFDDFVFDYIAKAVKKVMRTAKSDEEGHHHHHH,not soluble
10,MTSLILPTDDGGTREYRLQAATSWVKPTAPLTARRAYAAAHVIPEVAADNTPGAPAQLDWDATLAYRHELWSYGLGVADAMDTAQRGMGLDWAATQQLIKRTGAEAASVVAAGNAAITGKSVRDLVSCGAGTDQLDITALPEGAAGIQAVIDAYREQIAVVSEAGPKVILMASRALAKVANGADDYLHVYSTLLQEVDQPVILHWLGTMFDPALAGYWGSDDVSVATDTFLSLIREHSDKVDGVKVSLLDASHEVALRAALPEGVRLYTGDDFNYPELIDGDQTHHSDALLGIFAAIYPAASVALQKYDAGQGTEGRAILDSTRELGKHIFSAPTFYYKTGIAFMSWLNGKQPGFQMVGGLHSGRSVLHLAKTFELADQAGLLKDPSLAAFRMSDFLRINGVG,not soluble
11,MGSEKMIEICIDMEEGEPLGATPNDKLVITKIQAGTISEGKLRIGDQVKKVNGQNCKDCNDFFRALRFAAPCAKITVNRDEKKAEELEARVHIPEDRAKIIQRREGYVYELATLVWVQNGPKLGLGIKHFQNRVLVSRVDPGSLAEKCLVLGDHLCDVDGIPVSDKDVARDLLVKNIQEKGKVTFVVERPDSIDAKQWAKQALATNLMQPPSVQMNEDVKGIASQYRQALPGLKPPAKSAMSTGPNARRVSIIEQTQTHEIGHDHEGKALRKVK,soluble
12,MGSDKIHHHHHHMKTQVLYGKSEIEINVPDDSTIIEPQNIDAIQDYESTIKNVLRNPTNSKPLKEMVNSNDIVSIVISDITRPTPNHILVPLLIEELNHVPRENFVIINGTGTHRDQTRDELIQMLGEDIVNSVKIVHNHCSEKESLAKVGHSQYGCDVYLNKAYVESDFKIVTGFIEPHFFAGFSGGPKGIMPGIAGLETIQTFHNAKMIGDPRSTWGNLEDNPVQDMAREVNRMCKPDFLLNVALNKSKEITAAFAGEIFDTHKEGCAYVKDHAMFKCDQRFDIVIASNSGYPLDQNLYQTVKGMSAASKVVKKDGHIIMVSECADGFPDHGKFAEIFKMADTPQGILELIHNPNFKEVDQWQVQKQASIQTFANVHVYSELTDQQLKDSMLIPTSNIEHTIQELEHRYGRKLTIGVMPQGPLTIPYVEDKE,not soluble
13,MIVSFMVAMDENRVIGKDNNLPWRLPSELQYVKKTTMGHPLIMGRKNYEAIGRPLPGRRNIIVTRNEGYHVEGCEVAHSVEEVFELCKNEEEIFIFGGAQIYDLFLPYVDKLYITKIHHAFEGDTFFPEMDMTNWKEVFVEKGLTDEKNPYTYYYHVYEKQQLEHHHHHHHH,soluble
14,MNIRERKRKHLEACLEGEVAYQKTTTGLEGFRLRYQALAGLALSEVDLTTPFLGKTLKAPFLIGAMTGGEENGERINLALAEAAEALGVGMMLGSGRILLERPEALRSFRVRKVAPKALLIANLGLAQLRRYGRDDLLRLVEMLEADALAFHVNPLQEAVQRGDTDFRGLVERLAELLPLPFPVMVKEVGHGLSREAALALRDLPLAAVDVAGAGGTSWARVEEWVRFGEVRHPELCEIGIPTARAILEVREVLPHLPLVASGGVYTGTDGAKALALGADLLAVARPLLRPALEGAERVAAWIGDYLEELRTALFAIGARNPKEARGRVERV,soluble
15,MPMPNLPKELVEEILSFVPATYLKRLSATCKPWNRLIHNDKRFARKHYDNAAKEFLVFMMRKNFRIIRRGVNLHGADPSAEVKGELTLPDPYFKNSADEFHIDRVFHCDGLLLCTSKLERRMVVWNPLTGETKWIQTHEEGDNFFLGYSQEDKNISCKKSYKIMGFYRSGSKVWEYDFNSDSWRVLNGILPNWYFDKSYKCVSLKGNTYMLAGAVTDMGFDLSLQSYDFSTEKFAPVSLPVPSQARSLNGANRLSVVRGEKLALLYRRDKRSKAEIWVTNKIDDTTEGAVSWTKVLELDLSRELHALFTSNFLVDEEKKVFICCVSWKEDEDENKSNKVYIVGEDNIVKEIDSGEDATSGCEPTILSLYVPSLVYM,soluble
16,MSLNQQYNAFSVLVVDDELGMQAILKKALGKLFSHVDTAGSIEEAEQLRNSRHYDLILLDINLPGRSGIEWEEAFEDDEKRADVIFMTGYADLEIAIRALQLGASDFILKPFNLEQMLKAVSRCMDRRLNERMQYAMKRDYQRHNTSEIIGGSEKTRQLKQLITQFAPSRASVLVEGESGTGKELVARGIHQASGRTGPFVPINCGAIAPELLESELFGHTSGAFTGAKKSREGLFRVANGGTLFLDEIGEMPLSMQASLLRVLEQRTIRPVGSEREISIDVRIVAATNRNLQEEVNQGNFRSDLYYRLNVLKIEVCPLRERKTDLFELVPFFSNMLTRELGMPAPKWAHEDMEAMSEYDWPGNIRELKNLIERCILLGKPPAHYWRELNGGHSLPNVSEGHHHHHH,soluble
17,MNRIKEVLEEKGIKQTWLAEKLGKSFSIVNSYVCNRRQPSLDILFEIAKILEVDVRVLIGTKENRQKSK,not soluble
18,MNTGPYYFVKNLPLHELITPEFISTFIKKGSCYALTYNTHIDEDNTVALLPNGKLILSLDKDTYEETGLQGHPSQFSGRKIMKFIVSIDLMELSLNLDSKKYERISWSFKEKKPLKFDFLLAWHKTGSEESTMMSYFSKYQIQEHQPKVALSTLRDLQCPVLQSSELEGTPEVSCRALELFDWLGAVFSNVDLNEPNNFISTYCCPEPSTVVAKAYLCTITGFILPEKICLLLEHLCHYFDEPKLAPWVTLSVQGFADSPVSWEKNEHGFRKGGEHLYNFVIFNNQDYWLQMAVGANDHCPPLEHHHHHH,not soluble
19,MNSMEHLLKQAIKLRKEKKYAQSKEILIGLTNFTRDAEVLYQCAWIHDVMGLETEAMPYYEQAIANGLEGESLCGAYIGLGSTYRCIGEYDKAITVLETGLQQFPGNDVMKVFLSLAKFNVNDHESAMKLLLETVVKLEHHHHHH,soluble
20,GPGSMSVLVKGWGRGTCKINHIRDDDISSSESEGDDANVAVPLEELNVGTQHMITEEMRFRLRRKEKLSVQDDELGRLREAMRRQVFASGLLQPGQSAGVAPRRAEIIFSCAVEIQSSGLMEEAPTASPRVGDTSAWLKQLRKFILDRVPFQRSVRVMVPRTWLARAQETDVV,not soluble

# From the DeepSol protein solubility set
